B1: CYP9M10/CPR (Culex quinquefasciatus) (protein)
chain: MTSLEWLLLLVPTAIYLFYRWSVATFDYFEKRGVPFVKPVPLLGGMWNFFSGKMHMVDAGSLGYEMFPDSRFSGFFAFRKPGYLIHDPELVKQITIKDFDHFADHTNVVPIEADPVLGRALFFTEGTRWKHGRSGLSPAFTGRKMRNMFALLSNYMEGAMGRLVDDARRDGGLELEMRDLFQKLGNDVTTSLSFGVEIDSVHNPNNEFMRRGKELIATDGIQGLKFLLLTVLPKSFFRTLRIRIIPKEATDFYVDVISKTIKQREEHNIVRPDFIHLLVQGRKNELKMEQADDQLKSAGFSTVEEHLQSSTENSQYSDLDITAAAASFFFGGLETTTTVICFALYEMSQNPNVKQKLQAEIDQVKEQLSTTDSKLSYEVLQNMKYLDMVVSETLRRWAPLGLTNRACTKPYTIEDNNGTKVSIQVGDLIQIPIQSIHRDHRFYPDPYKFDPERFSEENKANINRSAFLPFGSGPRNCIGSRLALMQTKCFLYYTLANFELELCPKTDVPIKLNKRSVSLDTLSGFWFRMVPRGEMKK
notes: complete reading frames cloned from 4th instar larvae cDNA; microsomal protein, not purified; with NADPH--cytochrome P450 reductase
B2: CYP6AA7/CPR (Culex quinquefasciatus) (protein)
chain: MSLLNTLLYLVLPVAALIYLFVRRKLSYWADRNVPHAPGSFPMGSLQGMGTKYHMSHILERIYQQFKNESPAVGFYLTMKPTLMVTDLELVKQVLVKDFNSFRDRGVYYNEKDDPVSAHLFAIDGEKWRFLRNKLSPTFTSGKIKYMFNTMQEIGDEFVECFGRYEEREEAVDVKTLCGWFTCDVIGSCAFGLNCNSLKNEESELITIANRLFKPSPIDAMWQFFFMSFRDLSAKLRLLILPRDIAKYFMTLIPETVTYREQNNVTRPDFLQLLIQLKNKGTVDGAEQESSGETLTMNQVVAQSFVFMLGGFETTSTALTFALFELANNPEIQEKVRVEVSSVLARHDGKITYDALKEMTYLEQVVNETLRMYPPVPFVARNSNHSYHITHPDVTLDADTMVLVPVYAIHYDPDIYQNPTRFDPDRFTPEATQARHTHAFLPFGDGPRNCIGLRFALLEVKFGIAVLLSKFRFSPSAKMILPLELDISAPMMAAKGGVWLDVNKINSKE
notes: as for B1

Assays:
[1] = substrate: CCOc1ccc2ccc(=O)oc2c1; assay: 7-ethoxycoumarin O-deethylation (ECOD), fluorescence of 7-hydroxycoumarin, Sf9 microsomes; format: biochemical, Culex quinquefasciatus; settings: 1 mM NADPH, 0.1 M sodium phosphate pH 7.5, 30 °C, 30 min, substrate 0.1 to 1.2 mM, apparent
Excerpt: 7-ethoxycoumarin O-deethylation (ECOD), fluorescence of 7-hydroxycoumarin, Sf9 microsomes on CYP9M10/CPR

[2] = substrate: CCOc1ccc2ccc(=O)oc2c1; assay: as above; format: biochemical, Culex quinquefasciatus; settings: 1 mM NADPH, 0.1 M sodium phosphate pH 7.5, 30 °C, 30 min, substrate 0.1 to 1.2 mM, apparent; remark: listed apart in the source
Excerpt: 7-ethoxycoumarin O-deethylation (ECOD), fluorescence of 7-hydroxycoumarin, Sf9 microsomes on CYP6AA7/CPR

| Protein | Km [1] [µM] | Km [2] [µM] |
| --- | --- | --- |
| B1 | 779.3 ± 16.0 | – |
| B2 | – | 564.8 ± 14.7 |

— PMC5428437, “The function of two P450s, CYP9M10 and CYP6AA7, in the permethrin resistance of Culex quinquefasciatus” (Scientific Reports, 2017)
